From patent US20180251563A1 (SUBDOMAIN, published 2018)
Residue numbers refer to the chain shown, from its start.

T1: CD123 (target of Example 19) (Homo sapiens (Human), UniProt P26951 19-305, limits assumed)
T1 sequence: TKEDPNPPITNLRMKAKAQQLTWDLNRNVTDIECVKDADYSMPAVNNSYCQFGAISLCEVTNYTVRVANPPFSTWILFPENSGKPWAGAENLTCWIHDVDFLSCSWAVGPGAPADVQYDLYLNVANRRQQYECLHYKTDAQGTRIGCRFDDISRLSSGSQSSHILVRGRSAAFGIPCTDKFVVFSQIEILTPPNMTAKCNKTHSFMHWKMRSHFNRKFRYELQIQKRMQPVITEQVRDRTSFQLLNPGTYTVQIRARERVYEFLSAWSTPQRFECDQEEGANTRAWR

B1: SEQ ID NO 58 (designed binder)
chain: MGSWAEFKQRLAAIKTRLEALGGSEAELAAFLGEIWAFEMELAAYKGKGNPEVEALGREAAAIRMELQAYRHNGGGGSHHHHHH
notes: E. coli, IMAC and HPLC purified; also called His-fusion of bb10
B2: SEQ ID NO 53 (designed binder)
chain: MGSWYEFRHRLWAIDQRLYALGGSEAELAAFEKEIAAFESELQAYKGKGNPEVEGLREAAAFIRAKLQAYRHNGGGGSHHHHHH
notes: E. coli, IMAC and HPLC purified
B3: SEQ ID NO 57 (designed binder)
chain: B2 chain with R8H, H9Y, W12H, G55E, E58I, A59K, A65D, K66R
notes: as for B2
B4: SEQ ID NO 52 (designed binder)
chain: B2 chain with Y5V, R8A, H9N, Y19F, G55H, E58D, A59Q, A65H
notes: as for B2
B5: SEQ ID NO 56 (designed binder)
chain: B2 chain with R8G, G55Y, A59T, F62H, A65T, K66R
notes: as for B2
B6: SEQ ID NO 55 (designed binder)
chain: B2 chain with Y5F, R8N, D15N, Q16E, G55R, E58S, A59M, A65Y
notes: as for B2
B7: SEQ ID NO 54 (designed binder)
chain: B2 chain with R8S, H9M, G55A, E58A, A59K, F62Y, A65W
notes: as for B2
B8: SEQ ID NO 51 (designed binder)
chain: B2 chain with Y5V, R8G, G55K, E58Q, A59R, A65F, K66R
notes: as for B2
B9: SEQ ID NO 44 (designed binder)
chain: MGSWFEFENRLHAIVHRLGALGGSEAELAAFEKEIAAFESELQAYKGKGNPEVETLRADAAFIRHYLQAYRHN
B10: SEQ ID NO 38 (designed binder)
chain: MGSWTEFQSRLDAIHSRLRALGGSEAELAAFEKEIAAFESELQAYKGKGNPEVELLRDDAAFIRHFLQAYRHN
B11: SEQ ID NO 41 (designed binder)
chain: B9 chain with E8Q, N9D, H12T, V15N, H16E, G19S, A58S, H65R, Y66F
B12: SEQ ID NO 43 (designed binder)
chain: B10 chain with T5Y, Q8N, S9H, H15S, S16K, R19N, L55E, D58G
B13: SEQ ID NO 40 (designed binder)
chain: B10 chain with T5Y, S9N, D12H, S16E, R19N
B14: SEQ ID NO 42 (designed binder)
chain: B10 chain with T5Y, Q8E, S16E, R19H, L55N, D58G
B15: SEQ ID NO 39 (designed binder)
chain: B10 chain with T5Q, Q8D, S9D, D12N, H15K, S16A, R19Q, L55D, H65R
B16: SEQ ID NO 26 (designed binder)
chain: MGSWNYFKDHLAWIKNSLEALGGSEAELAHFETAIASFERQLQEYKGKGNPEVEALRKEAAAIRDELQAYRHN
B17: SEQ ID NO 30 (designed binder)
chain: B16 chain with N5H, W13E, N16G, S17L, T33M, S37D, R40H, Q41N, E44Y
B18: SEQ ID NO 27 (designed binder)
chain: B16 chain with N5L, D9E, W13H, N16A, S17W, T33L, S37D, R40Y, Q41H
B19: SEQ ID NO 29 (designed binder)
chain: B16 chain with N5F, D9Q, N16S, S17Y, T33R, S37A, R40Q, Q41H, E44M
B20: SEQ ID NO 31 (designed binder)
chain: B16 chain with N5H, D9G, W13E, S17H, T33R, S37A, Q41S, E44W
B21: SEQ ID NO 34 (designed binder)
chain: B16 chain with N5W, Y6L, W13E, N16T, S17A, T33M, S37A, R40K, E44Y
B22: SEQ ID NO 33 (designed binder)
chain: MGSWTYFKEHLAEIKYMLEALGGSEAELAHFEVAIADFEKMLQYYKGKGNPEVEALRKEAAAIRDELQAYRHN
B23: SEQ ID NO 28 (designed binder)
chain: B22 chain with T5V, E13W, Y16T, M17E, V33H, A34S, K40M, M41S, Y44F
B24: SEQ ID NO 32 (designed binder)
chain: B22 chain with T5I, E13Y, Y16K, M17E, V33S, D37V, K40S, M41T
B25: SEQ ID NO 14 (designed binder)
chain: MGSWYEFRHRLWAIDQRLYALGGSEAELAAFEKEIAAFESELQAYKGKGNPEVEGLREAAAFIRAKLQAYRHN
B26: SEQ ID NO 16 (designed binder)
chain: B25 chain with Y5F, R8N, D15N, Q16E, G55R, E58S, A59M, A65Y
B27: SEQ ID NO 18 (designed binder)
chain: B25 chain with R8H, H9Y, W12H, G55E, E58I, A59K, A65D, K66R
B28: SEQ ID NO 13 (designed binder)
chain: B25 chain with Y5V, R8A, H9N, Y19F, G55H, E58D, A59Q, A65H
B29: SEQ ID NO 15 (designed binder)
chain: B25 chain with R8S, H9M, G55A, E58A, A59K, F62Y, A65W
B30: SEQ ID NO 17 (designed binder)
chain: B25 chain with R8G, G55Y, A59T, F62H, A65T, K66R
B31: SEQ ID NO 12 (designed binder)
chain: B25 chain with Y5V, R8G, G55K, E58Q, A59R, A65F, K66R
B32: SEQ ID NO 63 (designed binder)
chain: MGSWYEFEERLDAIEDRLIALGGSEAELAIFEDIIAFFEQDLQYYKGKGNPEVEALEMEAEAISIELDAYRHN
B33: SEQ ID NO 65 (designed binder)
chain: MGSWEEFHERLDAIDERLEALGGSEAELAFFEDDIASFEDWLQWYKGKGNPEVEALSREADAINFELEAYRHN
B34: SEQ ID NO 64 (designed binder)
chain: MGSWWEFEDRLWAIDRRLMALGGSEAELAVFEQMIAHFEQILQVYKGKGNPEVEALHFEAHAIGMELAAYRHN
B35: SEQ ID NO 60 (designed binder)
chain: MGSWIEFEDRLDAITDRLWALGGSEAELAEFEHQIAFFEEDLQWYKGKGNPEVEALHMEAEAIMEELGAYRHN
B36: SEQ ID NO 61 (designed binder)
chain: MGSWVEFEYRLDAISDRLWALGGSEAELAFFENEIASFESDLQFYKGKGNPEVEALMFEAEAIDDELHAYRHN
B37: SEQ ID NO 62 (designed binder)
chain: MGSWYEFEDRLAAIEARLWALGGSEAELADFEEEIAYFEHGLQWYKGKGNPEVEALESEAMAIIDELHAYRHN

The binders below were run against T2, CD137-Fc-His6 fusion protein (assay: biolayer interferometry (ForteBio), CD137-Fc-His6 immobilized via protein A, steady state fit).
T2 construct: Made in HEK293 cells, IMAC purified; also called CD137 target protein
Description: The binding of the eight his-tagged DBDpp ligands (SEQ ID NO:51-58) to the CD137 target protein was assessed using biolayer interferometry (ForteBio, Menlo Park, Calif.) according to established methods. The binding assay was constructed by immobilizing the CD137-Fc-His6 via protein A and then incubating in solutions of each of the DBDpp ligands for 5 minutes to measure the association (binding) phase. The sensors were then placed in buffer to monitor the dissociation phase and the complete sensorgrams (time in seconds on the X-axis and nm on the Y-axis) are shown in FIGS. 12A, 12C, 12E, 12G, 12I, 12K, 12M, and 12O for DBDpps of SEQ ID Nos: 51-58, respectively. The data was fitted by steady state analysis, which is depicted in each of FIGS. […], 12F, 12H, 12J, 12L, 12N, and 12P for the corresponding DBDpp.

Binder | Kd
B1 | 1700 nM
B2 | 140 nM
B3 | 1000 nM
B4 | 460 nM
B5 | 770 nM
B6 | 170 nM
B7 | 400 nM
B8 | 640 nM

Each binder was assayed against T3, PD-L1-Fc (UniProt Q9NZQ7 19-238) (assay: phage ELISA, target-Fc against non-specific control).
T3 construct: purified recombinant target-Fc protein; also called FC-PD-L1; not shown: Fc
T3 sequence (Q9NZQ7 19-238 limits assumed): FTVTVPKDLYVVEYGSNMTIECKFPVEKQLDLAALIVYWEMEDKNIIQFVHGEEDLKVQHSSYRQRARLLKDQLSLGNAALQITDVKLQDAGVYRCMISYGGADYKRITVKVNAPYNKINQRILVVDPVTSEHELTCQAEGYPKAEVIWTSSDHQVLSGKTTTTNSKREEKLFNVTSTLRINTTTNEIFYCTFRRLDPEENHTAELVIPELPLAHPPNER
Description: (§1) Selections were also performed using F1, F2, F3, C1 & C2 trinucleotide phosphoramidite libraries. In most cases, libraries were pooled prior to use in selection. By combining equal volumes of the individual libraries, Pool F (libraries F1, F2 and F3) and Pool C (libraries C1 and C2) were generated. These libraries were used in selections for DBDpp binders to 4-1BB/CD137 as well as a larger panel of purified recombinant “target”-Fc proteins, including CD47, CTLA4, DR5, KIR, LAG3, OX40, PD1, PD-L1 and TIM3. (Many of these targets are considered immuno-regulatory factors (Pardoll et al., Nat. Rev. Cancer 12:252-264 (2012)). After incubation of the target with the pools of DBDpp phage libraries, bound phage-target complexes were captured and separated from unbound phage with protein A beads (target proteins were Fc fusions). After three rounds of selection, rescued phage clones were screened by ELISA for binding to the selected target.
(§2) For each target, approximately 90 DBDpp phage clones were screened by ELISA for binding to the target protein and as well as a non-specific control (e.g., IgG1-Fc). […] In some instances, for the ELISA screening plate in which the majority of DBDpp clones were positive, the entire plate was sequenced.

Binder | ELISA ratio (target to background)
B9 | 2.76 ratio
B10 | 8.68 ratio
B11 | 6.01 ratio
B12 | 2.98 ratio
B13 | 6.34 ratio
B14 | 4.88 ratio
B15 | 7.41 ratio

The binders below were run against T4, DR5-Fc (UniProt O14763 56-182, limits assumed) in the same assay as above.
T4 construct: purified recombinant target-Fc protein; not shown: Fc
T4 sequence (O14763 56-182 limits assumed): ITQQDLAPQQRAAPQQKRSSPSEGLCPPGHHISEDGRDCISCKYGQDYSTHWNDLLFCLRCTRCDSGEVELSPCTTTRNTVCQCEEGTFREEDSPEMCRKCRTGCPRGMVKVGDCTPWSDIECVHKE
Description: as §1, §2

Binder | ELISA ratio (target to background)
B16 | 13 ratio
B17 | 11.4 ratio
B18 | 12.3 ratio
B19 | 11.8 ratio
B20 | 10.8 ratio
B21 | 9.75 ratio
B22 | 10.3 ratio
B23 | 12.1 ratio
B24 | 10.7 ratio

These binders were tested against T5, recombinant, biotinylated, Human 4-1BB/TNFRSF9/CD137-Fc (human, UniProt Q07011 24-186, biotinylated (F2NNK selection)) in the same assay as above.
T5 construct: also called 4-1BB/CD137; not shown: Fc
T5 sequence (Q07011 24-186 limits assumed): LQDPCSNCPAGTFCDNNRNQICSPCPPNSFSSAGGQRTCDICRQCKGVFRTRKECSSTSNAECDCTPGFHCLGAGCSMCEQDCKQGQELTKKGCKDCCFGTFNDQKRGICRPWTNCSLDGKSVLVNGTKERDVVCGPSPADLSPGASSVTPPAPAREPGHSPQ
Description: as §1, §2

Binder | ELISA ratio (target to background)
B25 | 13 ratio
B26 | 11.9 ratio
B27 | 7.26 ratio
B28 | 16.1 ratio
B29 | 12 ratio
B30 | 7.71 ratio
B31 | 20.6 ratio

What follows are binders tested against T1, CD123 (target of Example 19) (assay: library selection; assay not described).

Binder | binding result
B32 | binds
B33 | binds
B34 | binds
B35 | binds
B36 | binds
B37 | binds
